These results are taken from US9314532B2, “Drug delivery vehicle” (University of North Texas Health Science Center, priority 2012, dated 2016).

Ends that are not written are not given here.

Data set [1] is described as follows: mRNA encapsulation, particle size. Particulars: mRNA/phospholipid particles upon addition of the MYR-5A peptide. Type of data set: physicochemical. From the text:
In an embodiment of the present invention, ˜2 kb mRNA was encapsulated to improve its functionality and bioavailability. mRNA was combined with phospholipid in the presence of detergent and particles of approximately 3 μm diameter were obtained. […] The smaller particle is suitable for efficient delivery of the mRNA to target cells and for therapeutic applications.

The nature of data set [2]: paclitaxel encapsulation efficiency into myristoyl peptide nanoparticles (3H-paclitaxel). It counts as physicochemical. Particulars: after centrifugation at 5,000 RPM for 5 minutes. Here is the method: Paclitaxel encapsulation efficiency into myristoyl peptide nanoparticles based on measurements of 3H-paclitaxel is shown in FIG. 8. […] In order to clarify the preparations, the samples were centrifuged at 5,000 RPM for 5 minutes.

For the sequence “DWLKAFYDKVAEKLKEAFPDWAKAAYDKAAEKAKEAA (also: myristoyl, place not given here) [MYR-5A, control peptide]”, in data set [1], the particle size was roughly 500 nm. For the sequence “EKLKALLEKLLAKLKELL (also: myristoyl, place not given here) [compound 39877]”, the “initial amount of paclitaxel retained” value in data set [2] is 60%.
